Data as given in patent US20120141504A1 (MAYO FOUNDATION FOR MEDICAL EDUCATION AND RESEARCH, published 2012).

Molecular target: T1, human B7-H3.1 expressed on 293 cells transfected with pcDNA/B7-H3 (human, UniProt Q5ZPR3 29-534)
T1 sequence: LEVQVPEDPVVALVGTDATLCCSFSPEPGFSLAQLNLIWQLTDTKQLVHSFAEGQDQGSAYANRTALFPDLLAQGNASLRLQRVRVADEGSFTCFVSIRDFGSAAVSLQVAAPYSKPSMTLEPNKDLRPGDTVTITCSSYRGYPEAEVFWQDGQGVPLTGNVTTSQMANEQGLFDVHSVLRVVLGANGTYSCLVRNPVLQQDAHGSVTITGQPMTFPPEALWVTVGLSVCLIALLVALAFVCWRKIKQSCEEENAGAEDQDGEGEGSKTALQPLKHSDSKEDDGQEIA
Test: flow cytometry on transfected 293 cells
Experimental: After a 45 min incubation, cells were washed and cultured for 45 min with fluorescein isothiocyanate (FITC)-conjugated goat anti-mouse Ig F(ab′)₂ (BioSource, Camarillo, Calif.). For two color staining, cells were washed and further incubated with phycoerythrin (PE)-conjugated mAb specific for CD3, CD14, or CD19 (PharMingen, San Diego, Calif.). For the analysis of CD3+, CD19+, and CD 14+ cells, peripheral blood mononuclear cells (PBMC) (untreated or activated as described below) were stained with anti-B3-H7 antiserum (green fluorescence) and either anti-CD3, anti-CD19, or anti-CD14 monoclonal antibody (mAb) (orange fluorescence). The proportion of B7-H3 expressing cells (green fluorescence) within the CD3+, the CD19+, and the CD 14+ populations was assessed by gating the flow cytometer on the relevant populations (orange fluorescence). Expression of a B7-H3 counter-receptor was analyzed by incubation of cells with B7-H3Ig (5 μg/sample) with subsequent staining using FITC-conjugated goat anti-mouse Ig F(ab′)₂. Single or double stained cells were analyzed using the Becton Dickinson FACScan (Mountain View, Calif.).

B1: ICOSIg fusion protein (Fc fusion, UniProt Q9Y6W8 21-140, looked up)
chain: EINGSANYEMFIFHNGGVQILCKYPDIVQQFKMQLLKGGQILCDLTKTKGSGNTVSIKSLKFCHSQLSNNSVSFFLYNLDHSHANYYFCNLSIFDPPPFKVTLTGGYLHIYESQLCCQLK
notes: extracellular domain; Described as an analogous fusion protein prepared by a method similar to that for B7-H3Ig (extracellular domain fused to mouse IgG2a Fc); not shown: Fc constant region of mouse IgG2a
binding result: no binding (tested: 5 µg/sample)
